Assay results taken from US10835618.
pEC50, pKd: −log10 of the molar value.

How the values were obtained:
[1] = biological target: Polyvalent sialyl Le^a-HSA (Isosep AB); assay: ELISA on coated sialyl-Lewis^a-HSA
[2] = biological target: Polyvalent sialyl Le^a-HSA (Isosep AB); assay: SPR, real-time sialyl Le^a-HSA binding, antigen on CM5 chip
[3] = biological target: Polyvalent sialyl Le^a-HSA (Isosep AB); assay: ELISA on plates coated with sialyl-Lewis^a-HSA, OD 450nm
[4] = biological target: Polyvalent sialyl Le^a-HSA (Isosep AB); assay: SPR (Biacore X or 3000), sialyl Le^a-HSA coupled to CM5 chip; major population
[5] = biological target: Polyvalent sialyl Le^a-HSA (Isosep AB); assay: SPR (Biacore X or 3000), sialyl Le^a-HSA coupled to CM5 chip; minor population
[6] = biological target: Polyvalent sialyl Le^a-HSA (Isosep AB); assay: SPR (Biacore X or 3000), sialyl Le^a-HSA coupled to CM5 chip; major population; major population (80%), two-population fit
[7] = biological target: Polyvalent sialyl Le^a-HSA (Isosep AB); assay: SPR (Biacore X or 3000), sialyl Le^a-HSA coupled to CM5 chip; minor population; minor population (20%), two-population fit

Sequence of FG129 mAb (mouse FG129/29 IgG1 kappa) (antibody) (heavy): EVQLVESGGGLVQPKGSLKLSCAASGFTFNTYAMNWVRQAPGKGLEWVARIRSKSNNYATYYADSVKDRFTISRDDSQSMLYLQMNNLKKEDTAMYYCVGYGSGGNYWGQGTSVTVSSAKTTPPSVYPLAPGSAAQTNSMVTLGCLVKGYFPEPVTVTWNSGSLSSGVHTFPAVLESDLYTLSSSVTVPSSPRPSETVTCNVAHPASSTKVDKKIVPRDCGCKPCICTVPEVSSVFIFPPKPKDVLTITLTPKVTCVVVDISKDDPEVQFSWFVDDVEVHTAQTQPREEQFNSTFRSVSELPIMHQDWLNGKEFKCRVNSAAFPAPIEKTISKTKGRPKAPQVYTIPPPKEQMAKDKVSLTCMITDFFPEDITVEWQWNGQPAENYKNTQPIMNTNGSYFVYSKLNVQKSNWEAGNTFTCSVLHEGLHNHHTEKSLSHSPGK
Sequence of FG129 mAb (mouse FG129/29 IgG1 kappa) (antibody) (light): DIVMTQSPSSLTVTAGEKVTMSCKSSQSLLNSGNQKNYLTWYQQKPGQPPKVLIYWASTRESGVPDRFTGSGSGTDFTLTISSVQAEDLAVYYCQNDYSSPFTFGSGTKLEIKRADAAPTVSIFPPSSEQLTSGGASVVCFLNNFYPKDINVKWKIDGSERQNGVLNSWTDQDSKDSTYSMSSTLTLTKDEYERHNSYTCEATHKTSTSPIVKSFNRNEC

pEC50 [1] | pKd [2] | koff [2] | kon [2] | pEC50 [3] | koff [4] | kon [4] | pKd [5] | kon [5] | pKd [6] | koff [7] | Substance
10.00 | 9.70 | 0.00011 s⁻¹ | 620000 M⁻¹ s⁻¹ | 9.54 | 0.00257 s⁻¹ | 19700 M⁻¹ s⁻¹ | 12.85 | 88500 M⁻¹ s⁻¹ | 6.89 | 1.35e-08 s⁻¹ | FG129 mAb (mouse FG129/29 IgG1 kappa) (antibody)
 |  |  |  | 9.73 |  |  |  |  |  |  | CA19.9 (anti-sialyl lewis a Mab) (antibody)
